Consider 23 molecules from paper PMC10786891, “Massively parallel profiling of RNA-targeting CRISPR-Cas13d”.

First the molecules themselves.
B1: target 1 MT 5'PFS AGG 3'PFS AAU (mixed)
RNA 1: CACCCGUGCAAAAAUGCAGGGGUCUAAAACUGAGCGGAUAACCUCUCUAUGG
RNA 2: GGGAAUGGAUCCACAUCUACGAAUUCAGGCCAUAGAGAGGUUAUCCGCUCAAAUAGAUCGGAAGAGCACACGU
B2: target 1 MT 5'PFS AAG 3'PFS ACU (mixed)
RNA 1: CACCCGUGCAAAAAUGCAGGGGUCUAAAACUGAGCGGAUAACCUCUCUAUGG
RNA 2: GGGAAUGGAUCCACAUCUACGAAUUCAAGCCAUAGAGAGGUUAUCCGCUCAACUAGAUCGGAAGAGCACACGU
B3: target 1 MT 5'PFS AAA 3'PFS AAA (mixed)
RNA 1: CACCCGUGCAAAAAUGCAGGGGUCUAAAACUGAGCGGAUAACCUCUCUAUGG
RNA 2: GGGAAUGGAUCCACAUCUACGAAUUCAAACCAUAGAGAGGUUAUCCGCUCAAAAAGAUCGGAAGAGCACACGU
B4: target 1 MT 5'PFS UGC 3'PFS UGU (mixed)
RNA 1: CACCCGUGCAAAAAUGCAGGGGUCUAAAACUGAGCGGAUAACCUCUCUAUGG
RNA 2: GGGAAUGGAUCCACAUCUACGAAUUCUGCCCAUAGAGAGGUUAUCCGCUCAUGUAGAUCGGAAGAGCACACGU
B5: target 1 MT 5'PFS GAA 3'PFS UCC (mixed)
RNA 1: CACCCGUGCAAAAAUGCAGGGGUCUAAAACUGAGCGGAUAACCUCUCUAUGG
RNA 2: GGGAAUGGAUCCACAUCUACGAAUUCGAACCAUAGAGAGGUUAUCCGCUCAUCCAGAUCGGAAGAGCACACGU
B6: target 1 insC 3' of 20,insC 3' of 15 (mixed)
RNA 1: CACCCGUGCAAAAAUGCAGGGGUCUAAAACUGAGCGGAUAACCUCUCUAUGG
RNA 2: GGGAAUGGAUCCACAUCUACGAAUUCGUACCACUAGAGCAGGUUAUCCGCUCACCGAGAUCGGAAGAGCACACGU
B7: target 1 A1G,A16U (mixed)
RNA 1: CACCCGUGCAAAAAUGCAGGGGUCUAAAACUGAGCGGAUAACCUCUCUAUGG
RNA 2: GGGAAUGGAUCCACAUCUACGAAUUCGUACCAUAGUGAGGUUAUCCGCUCGCCGAGAUCGGAAGAGCACACGU
B8: target 1 MT 5'PFS AAG 3'PFS ACC (mixed)
RNA 1: CACCCGUGCAAAAAUGCAGGGGUCUAAAACUGAGCGGAUAACCUCUCUAUGG
RNA 2: GGGAAUGGAUCCACAUCUACGAAUUCAAGCCAUAGAGAGGUUAUCCGCUCAACCAGAUCGGAAGAGCACACGU
B9: target 1 MT 5'PFS GUU 3'PFS UAA (mixed)
RNA 1: CACCCGUGCAAAAAUGCAGGGGUCUAAAACUGAGCGGAUAACCUCUCUAUGG
RNA 2: GGGAAUGGAUCCACAUCUACGAAUUCGUUCCAUAGAGAGGUUAUCCGCUCAUAAAGAUCGGAAGAGCACACGU
B10: target 1 MT 5'PFS AAA 3'PFS AAG (mixed)
RNA 1: CACCCGUGCAAAAAUGCAGGGGUCUAAAACUGAGCGGAUAACCUCUCUAUGG
RNA 2: GGGAAUGGAUCCACAUCUACGAAUUCAAACCAUAGAGAGGUUAUCCGCUCAAAGAGAUCGGAAGAGCACACGU
B11: target 1 MT 5'PFS AUG 3'PFS UCU (mixed)
RNA 1: CACCCGUGCAAAAAUGCAGGGGUCUAAAACUGAGCGGAUAACCUCUCUAUGG
RNA 2: GGGAAUGGAUCCACAUCUACGAAUUCAUGCCAUAGAGAGGUUAUCCGCUCAUCUAGAUCGGAAGAGCACACGU
B12: target 1 MT 5'PFS ACU 3'PFS UCU (mixed)
RNA 1: CACCCGUGCAAAAAUGCAGGGGUCUAAAACUGAGCGGAUAACCUCUCUAUGG
RNA 2: GGGAAUGGAUCCACAUCUACGAAUUCACUCCAUAGAGAGGUUAUCCGCUCAUCUAGAUCGGAAGAGCACACGU
B13: target 1 MT 5'PFS GUU 3'PFS UAG (mixed)
RNA 1: CACCCGUGCAAAAAUGCAGGGGUCUAAAACUGAGCGGAUAACCUCUCUAUGG
RNA 2: GGGAAUGGAUCCACAUCUACGAAUUCGUUCCAUAGAGAGGUUAUCCGCUCAUAGAGAUCGGAAGAGCACACGU
B14: target 1 MT 5'PFS GCG 3'PFS UCU (mixed)
RNA 1: CACCCGUGCAAAAAUGCAGGGGUCUAAAACUGAGCGGAUAACCUCUCUAUGG
RNA 2: GGGAAUGGAUCCACAUCUACGAAUUCGCGCCAUAGAGAGGUUAUCCGCUCAUCUAGAUCGGAAGAGCACACGU
B15: target 1 MT 5'PFS GUU 3'PFS UAC (mixed)
RNA 1: CACCCGUGCAAAAAUGCAGGGGUCUAAAACUGAGCGGAUAACCUCUCUAUGG
RNA 2: GGGAAUGGAUCCACAUCUACGAAUUCGUUCCAUAGAGAGGUUAUCCGCUCAUACAGAUCGGAAGAGCACACGU
B16: target 1 MT 5'PFS AUG 3'PFS UCC (mixed)
RNA 1: CACCCGUGCAAAAAUGCAGGGGUCUAAAACUGAGCGGAUAACCUCUCUAUGG
RNA 2: GGGAAUGGAUCCACAUCUACGAAUUCAUGCCAUAGAGAGGUUAUCCGCUCAUCCAGAUCGGAAGAGCACACGU
B17: target 1 MT 5'PFS GAA 3'PFS UCU (mixed)
RNA 1: CACCCGUGCAAAAAUGCAGGGGUCUAAAACUGAGCGGAUAACCUCUCUAUGG
RNA 2: GGGAAUGGAUCCACAUCUACGAAUUCGAACCAUAGAGAGGUUAUCCGCUCAUCUAGAUCGGAAGAGCACACGU
B18: target 1 MT 5'PFS GUU 3'PFS UAU (mixed)
RNA 1: CACCCGUGCAAAAAUGCAGGGGUCUAAAACUGAGCGGAUAACCUCUCUAUGG
RNA 2: GGGAAUGGAUCCACAUCUACGAAUUCGUUCCAUAGAGAGGUUAUCCGCUCAUAUAGAUCGGAAGAGCACACGU
B19: target 1 MT 5'PFS AAA 3'PFS AAC (mixed)
RNA 1: CACCCGUGCAAAAAUGCAGGGGUCUAAAACUGAGCGGAUAACCUCUCUAUGG
RNA 2: GGGAAUGGAUCCACAUCUACGAAUUCAAACCAUAGAGAGGUUAUCCGCUCAAACAGAUCGGAAGAGCACACGU
B20: target 1 MT 5'PFS AAG 3'PFS ACG (mixed)
RNA 1: CACCCGUGCAAAAAUGCAGGGGUCUAAAACUGAGCGGAUAACCUCUCUAUGG
RNA 2: GGGAAUGGAUCCACAUCUACGAAUUCAAGCCAUAGAGAGGUUAUCCGCUCAACGAGAUCGGAAGAGCACACGU
B21: target 1 MT 5'PFS GAA 3'PFS UCA (mixed)
RNA 1: CACCCGUGCAAAAAUGCAGGGGUCUAAAACUGAGCGGAUAACCUCUCUAUGG
RNA 2: GGGAAUGGAUCCACAUCUACGAAUUCGAACCAUAGAGAGGUUAUCCGCUCAUCAAGAUCGGAAGAGCACACGU
B22: target 1 MT 5'PFS CCG 3'PFS CGG (mixed)
RNA 1: CACCCGUGCAAAAAUGCAGGGGUCUAAAACUGAGCGGAUAACCUCUCUAUGG
RNA 2: GGGAAUGGAUCCACAUCUACGAAUUCCCGCCAUAGAGAGGUUAUCCGCUCACGGAGAUCGGAAGAGCACACGU
B23: target 1 MT 5'PFS AAG 3'PFS ACA (mixed)
RNA 1: CACCCGUGCAAAAAUGCAGGGGUCUAAAACUGAGCGGAUAACCUCUCUAUGG
RNA 2: GGGAAUGGAUCCACAUCUACGAAUUCAAGCCAUAGAGAGGUUAUCCGCUCAACAAGAUCGGAAGAGCACACGU

The data set addresses T1, EsCas13d, nuclease-dead (Eubacterium siraeum, UniProt B0MS50, R295A;H300A;R849A;H854A).
T1 sequence: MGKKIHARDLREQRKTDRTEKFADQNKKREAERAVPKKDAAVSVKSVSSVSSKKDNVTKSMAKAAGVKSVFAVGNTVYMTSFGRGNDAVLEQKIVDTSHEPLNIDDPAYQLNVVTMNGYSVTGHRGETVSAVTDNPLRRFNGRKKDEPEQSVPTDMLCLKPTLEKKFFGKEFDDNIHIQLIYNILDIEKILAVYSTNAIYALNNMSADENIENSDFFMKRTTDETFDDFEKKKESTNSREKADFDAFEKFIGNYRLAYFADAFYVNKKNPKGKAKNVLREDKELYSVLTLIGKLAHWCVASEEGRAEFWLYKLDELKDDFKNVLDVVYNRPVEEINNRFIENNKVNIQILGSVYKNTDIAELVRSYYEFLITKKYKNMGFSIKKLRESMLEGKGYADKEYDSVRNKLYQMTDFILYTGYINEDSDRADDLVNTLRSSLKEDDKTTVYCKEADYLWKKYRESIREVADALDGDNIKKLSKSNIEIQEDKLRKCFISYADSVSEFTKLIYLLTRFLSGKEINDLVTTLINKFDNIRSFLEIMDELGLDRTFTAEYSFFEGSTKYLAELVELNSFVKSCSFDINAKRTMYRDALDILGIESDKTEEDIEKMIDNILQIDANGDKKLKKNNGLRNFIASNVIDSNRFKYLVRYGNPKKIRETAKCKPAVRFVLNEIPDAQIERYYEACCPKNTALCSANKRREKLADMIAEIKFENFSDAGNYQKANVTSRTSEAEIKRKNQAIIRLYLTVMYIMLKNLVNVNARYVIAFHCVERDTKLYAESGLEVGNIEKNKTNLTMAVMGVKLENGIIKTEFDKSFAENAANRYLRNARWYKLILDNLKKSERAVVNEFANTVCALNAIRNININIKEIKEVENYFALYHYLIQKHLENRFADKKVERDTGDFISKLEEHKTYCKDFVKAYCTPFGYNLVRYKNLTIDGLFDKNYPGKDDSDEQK
As to the kind of experiment: crRNA (strand 1, pre-loaded); Mg2+; 40 mM Tris-HCl pH 7.5, 150 mM NaCl, 6 mM MgCl2, 1 mM DTT, 0.1% Tween-20, 0.2 mg/ml BSA; 25 C; 10 min per concentration, then washed. The following applies: tags: His6-TwinStrep-SUMO cleaved; N-terminal SNAP kept (SNAP-Surface 488); label: 3' end held by stalled T7 RNA polymerase.
As for B1, the Kd is about 60 nM.

In the case of B2, the affinity, expressed as Kd, was 16.5 ± 6 nM.

Molecule B3 registered a Kd of 33.5 ± 14.5 nM.

Molecule B4 displayed a Kd of 38 ± 13 nM.

The molecule B5 yielded a Kd of 27 ± 7 nM.

Consider B6, for which the Kd was 10.1 ± 0.6 nM.

B7: the Kd came out at 45 ± 11 nM.

B8 displayed a Kd of about 47.5 nM.

Consider B9, for which the Kd was determined as 20.9 ± 3.75 nM.

Consider B10, for which the Kd stood at 25.5 ± 6.5 nM.

Molecule B11 came in with a Kd of 10.6 ± 1.75 nM.

Regarding B12, the dissociation constant (Kd) is about 52 nM.

In turn, B13 showed a dissociation constant Kd of 17.4 ± 2.25 nM.

Consider B14, for which the Kd came to 13 ± 2.45 nM.

In the case of B15, the affinity, expressed as Kd, was 14.3 ± 2.8 nM.

The molecule B16 returned a Kd of 20 ± 8.5 nM.

Regarding B17, binding was characterised by a dissociation constant (Kd) of 25 ± 5 nM.

B18 displayed a Kd of 16.9 ± 2.4 nM.

In the case of B19, the Kd amounted to 30 ± 12 nM.

As to B20, the Kd is 15.5 ± 4 nM.

In turn, B21 came in with a Kd of 29 ± 8 nM.

B22 registered a Kd of 19 ± 5.5 nM.

B23 registered a Kd of 23.5 ± 10 nM.

Broadly, the Kd is the constant that tells how readily two partners part at equilibrium. Low values mean higher affinity, high ones lower affinity.
